Results reported in patent US20070207955A1, “Novel polypeptide and process for producing the same, and collagenase inhibitor” (priority 2006, published 2007).

How the values were obtained:
[1] = target: collagenase (MMP-1, human rheumatoid synovial fibroblast) (human) (UniProt P03956)
[2] = target: polypeptide of Example 3 (co-polycondensate of H-(Pro-Hyp-Gly)10-OH and H-(Pro-Hyp-Gly)4-Pro-Gln-Gly-Ile-Ala-Gly-(Pro-Hyp-Gly)4-OH, equimolar) (Artificial Sequence)
[3] = target: polypeptide of Example 2 (polycondensate of H-(Pro-Hyp-Gly)4-Pro-Gln-Gly-Ile-Ala-Gly-(Pro-Hyp-Gly)4-OH) (Artificial Sequence)
[4] = target: polypeptide of Comparative Example 1 (polycondensate of H-(Pro-Hyp-Gly)10-OH) (Artificial Sequence)
[5] = target: T1, collagenase (MMP-1, human rheumatoid synovial fibroblast) (Homo sapiens, UniProt P03956); assay: Test Example 2: collagenase inhibition, peak area of Dnp-Pro-Leu-Gly from decomposition of Dnp-Pro-Leu-Gly-Ile-Ala-Gly-Arg-NH2; format: biochemical; settings: 0.025 mg polypeptide, 200 ng collagenase, 37° C. for one hour
T1 construct: collagenase (MMP-1, human rheumatoid synovial fibroblast); endogenous in cells; host or cells: human rheumatoid synovial fibroblast
T1 sequence (P03956 100-469): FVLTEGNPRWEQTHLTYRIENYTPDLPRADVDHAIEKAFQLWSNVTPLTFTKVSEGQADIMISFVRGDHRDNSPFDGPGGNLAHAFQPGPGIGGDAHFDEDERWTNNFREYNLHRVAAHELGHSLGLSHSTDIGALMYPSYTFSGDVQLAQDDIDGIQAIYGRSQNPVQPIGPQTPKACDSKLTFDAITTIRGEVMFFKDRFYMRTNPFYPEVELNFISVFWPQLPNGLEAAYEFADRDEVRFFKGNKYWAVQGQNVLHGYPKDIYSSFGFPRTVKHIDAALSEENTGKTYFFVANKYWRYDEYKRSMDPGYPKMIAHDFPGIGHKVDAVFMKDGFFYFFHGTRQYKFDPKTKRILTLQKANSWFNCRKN
Procedure: Each of the polypeptides (0.025 mg) obtained in the Examples 1 to 6 and Comparative Examples 1 and 2 was dissolved in 0.05 mL of a 50 mM Tris/HCl buffer (pH=7.5) containing 50 mM NaCl and 10 mM CaCl2. Further, to each of the solutions was added 200 ng of collagenase (MMP-1, human rheumatoid synovial fibroblast) which was dissolved in 0.05 mL of a 50 mM Tris/HCl buffer (pH=7.5) containing 50 mM NaCl and 10 mM CaCl2, and was added 0.01 mL of 1 mM DMSO solution of Dnp-Pro-Leu-Gly-Ile-Ala-Gly-Arg-NH2 (manufactured by Peptide Institute, Inc., Dnp represents 2,4-dinitrophenyl group). The resulting mixture was allowed to stand at 37° C. for one hour. Then, 0.2 mL of acetonitrile was added to the mixture, and the resultant was centrifuged at 10,000 rpm for 10 minutes.
Incidentally, as a control, a peak area of the peptide Dnp-Pro-Leu-Gly without addition of any polypeptide was measured. The peak area of the control was considered as 100, and the peak area detected by addition of each of the polypeptides obtained in Examples and Comparative Examples was calculated as a relative value to the control.

Row | Substance | relative value of the peak area of Dnp-Pro-Leu-Gly (control without polypeptide = 100) (relative to control = 100) [1] | other results
1 | peptide of Comparative Example 2, H-(Pro-Hyp-Gly)10-OH | 96 | –
2 | polypeptide of Example 4 (co-polycondensate of H-(Pro-Hyp-Gly)10-OH and H-(Pro-Hyp-Gly)4-Pro-Gln-Gly-Ile-Ala-Gly-(Pro-Hyp-Gly)4-OH, 0.00081 mmol to 0.00009 mmol) | 22 | –
3 | polypeptide of Example 1, H-(Pro-Hyp-Gly)4-Pro-Gln-Gly-Ile-Ala-Gly-(Pro-Hyp-Gly)4-OH | 5 | –
4 | collagenase (MMP-1, human rheumatoid synovial fibroblast) (from UniProt P03956) (enzyme) | – | change in the molecular weight peak by gel-permeation chromatography after 24 hours at 37 C with collagenase (molecular weight) [2]: 400000; change in the molecular weight peak by gel-permeation chromatography after 24 hours at 37 C with collagenase (molecular weight) [3]: 540000; change in the molecular weight peak by gel-permeation chromatography after 24 hours at 37 C with collagenase (molecular weight) [4]: 540000
5 | polypeptide of Example 3 (co-polycondensate of H-(Pro-Hyp-Gly)10-OH and H-(Pro-Hyp-Gly)4-Pro-Gln-Gly-Ile-Ala-Gly-(Pro-Hyp-Gly)4-OH, equimolar) | 12 | –
6 | H-(Pro-Hyp-Gly)10-OH [Comparative Example 2] | – | inhibition of the collagenase activity [5]: the inhibition of the collagenase activity was not recognized; relative value of the detected peak area of Dnp-Pro-Leu-Gly (control without polypeptide = 100) ([5]; pH 7.5): 96
7 | polypeptide of Example 6 (polycondensate of H-(Pro-Hyp-Gly)4-Pro-Leu-Gly-Ile-Ala-Gly-(Pro-Hyp-Gly)4-OH) | 2 | –

The next lines start with results.

Row | relative value of the peak area of Dnp-Pro-Leu-Gly (control without polypeptide = 100) (relative to control = 100) [1] | Substance | other results
8 | 4 | polypeptide of Example 5, H-(Pro-Hyp-Gly)4-Pro-Leu-Gly-Ile-Ala-Gly-(Pro-Hyp-Gly)4-OH | –
9 | 97 | polypeptide of Comparative Example 1 (polycondensate of H-(Pro-Hyp-Gly)10-OH) | –
10 | 3 | polypeptide of Example 2 (polycondensate of H-(Pro-Hyp-Gly)4-Pro-Gln-Gly-Ile-Ala-Gly-(Pro-Hyp-Gly)4-OH) | –
